# Measured values taken from the supplement of paper PMC9112550, “Optimization of the antimicrobial peptide Bac7 by deep mutational scanning” (BMC Biology, 2022).
# Test system: Escherichia coli TOP10
# Assay: shrunken log2 fold change of peptide-encoding DNA abundance (4.5 h post-induction vs induction); higher = less antimicrobial activity (less host growth inhibition)
# Details: time post-induction: 4.5 h; library: site-saturation at positions 5, 18, 19, 20
# 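Note: peptides expressed intracellularly from a pBAD plasmid library in pooled LB shake-flask culture, induced with 0.3% L-arabinose, DNA abundance read by NGS, three biological replicates, DESeq2 with apeglm shrinkage.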
row,Sequence,shrunken log2 fold change
1,RRIRVRPPRLPRPRPRPEYLPRP,-0.191
2,RRIRPRPPRLPRPRPRPYYYPRP,-0.937
3,RRIRDRPPRLPRPRPRPDHQPRP,-0.0643
4,RRIRQRPPRLPRPRPRPPRVPRP,0.422
5,RRIRFRPPRLPRPRPRPRQVPRP,-0.331
6,RRIRRRPPRLPRPRPRPKAVPRP,0.0693
7,RRIRSRPPRLPRPRPRPDNWPRP,-0.39
8,RRIRQRPPRLPRPRPRPMEDPRP,-0.00192
9,RRIRGRPPRLPRPRPRPREWPRP,0.843
10,RRIRMRPPRLPRPRPRPLAGPRP,0.468
11,RRIRYRPPRLPRPRPRPKITPRP,-0.57
12,RRIRNRPPRLPRPRPRPKNHPRP,-0.19
13,RRIRMRPPRLPRPRPRPWGIPRP,0.0388
14,RRIRWRPPRLPRPRPRPHKGPRP,-0.185
15,RRIRRRPPRLPRPRPRPGLYPRP,0.305
16,RRIRERPPRLPRPRPRPWVCPRP,0.0297
17,RRIRHRPPRLPRPRPRPKFQPRP,-0.0213
18,RRIRTRPPRLPRPRPRPLDQPRP,0.365
19,RRIRERPPRLPRPRPRPMQPPRP,-0.0115
20,RRIRYRPPRLPRPRPRPEVFPRP,-0.0536
21,RRIRWRPPRLPRPRPRPPTGPRP,0.23
22,RRIRYRPPRLPRPRPRPAFCPRP,-0.1
23,RRIRQRPPRLPRPRPRPNSNPRP,-0.648
24,RRIRVRPPRLPRPRPRPTLQPRP,0.0594
25,RRIRCRPPRLPRPRPRPHLDPRP,-0.0622

row,Sequence,shrunken log2 fold change
1,RRIRSRPPRLPRPRPRPSMCPRP,-0.146
2,RRIRLRPPRLPRPRPRPTKKPRP,0.12
3,RRIRPRPPRLPRPRPRPKGCPRP,0.394
4,RRIRCRPPRLPRPRPRPYMGPRP,-0.017
5,RRIRHRPPRLPRPRPRPMLGPRP,-0.00277
6,RRIRLRPPRLPRPRPRPCETPRP,-0.155
7,RRIRIRPPRLPRPRPRPMMHPRP,-0.59
8,RRIRLRPPRLPRPRPRPIIEPRP,-0.171
9,RRIRPRPPRLPRPRPRPAAWPRP,0.377
10,RRIRARPPRLPRPRPRPPIKPRP,-0.0438
11,RRIRIRPPRLPRPRPRPDNGPRP,-0.375
12,RRIRERPPRLPRPRPRPLMPPRP,-0.119
13,RRIRERPPRLPRPRPRPYRFPRP,-0.708
14,RRIRGRPPRLPRPRPRPVYLPRP,-0.33
15,RRIRFRPPRLPRPRPRPGKGPRP,-0.159
16,RRIRCRPPRLPRPRPRPRHAPRP,0.451
17,RRIRKRPPRLPRPRPRPPYEPRP,0.0908
18,RRIRNRPPRLPRPRPRPGITPRP,-0.326
19,RRIRVRPPRLPRPRPRPGRFPRP,0.277
20,RRIRTRPPRLPRPRPRPFMSPRP,0.0219
21,RRIRNRPPRLPRPRPRPYIEPRP,-0.275
22,RRIRARPPRLPRPRPRPAMIPRP,0.0684
23,RRIRWRPPRLPRPRPRPDKRPRP,-0.00125
24,RRIRCRPPRLPRPRPRPKGFPRP,0.00848
25,RRIRLRPPRLPRPRPRPTWCPRP,0.107

row,Sequence,shrunken log2 fold change
1,RRIRTRPPRLPRPRPRPPCSPRP,-0.00786
2,RRIRYRPPRLPRPRPRPVLQPRP,-0.297
3,RRIRQRPPRLPRPRPRPNFQPRP,-0.198
4,RRIRMRPPRLPRPRPRPMDLPRP,-0.0207
5,RRIRTRPPRLPRPRPRPRVTPRP,-0.163
6,RRIRHRPPRLPRPRPRPIIQPRP,-0.348
7,RRIRNRPPRLPRPRPRPTGPPRP,0.126
8,RRIRWRPPRLPRPRPRPSWMPRP,-0.0675
9,RRIRARPPRLPRPRPRPAGPPRP,0.453
10,RRIRMRPPRLPRPRPRPPINPRP,-0.195
11,RRIRIRPPRLPRPRPRPDQAPRP,-0.002
12,RRIRQRPPRLPRPRPRPLNDPRP,-0.277
13,RRIRGRPPRLPRPRPRPVSAPRP,0.676
14,RRIRRRPPRLPRPRPRPTPDPRP,0.72
15,RRIRCRPPRLPRPRPRPLHEPRP,-0.23
16,RRIRERPPRLPRPRPRPFLAPRP,0.0854
17,RRIRKRPPRLPRPRPRPSGKPRP,-0.424
18,RRIRTRPPRLPRPRPRPFYMPRP,-0.369
19,RRIRVRPPRLPRPRPRPDTLPRP,-0.712
20,RRIRTRPPRLPRPRPRPNSLPRP,0.0607
21,RRIRLRPPRLPRPRPRPFLTPRP,-0.434
22,RRIRLRPPRLPRPRPRPWTPPRP,-0.191
23,RRIRQRPPRLPRPRPRPGGPPRP,0.0535
24,RRIRCRPPRLPRPRPRPAAAPRP,0.528
25,RRIRQRPPRLPRPRPRPFNEPRP,-0.03

row,Sequence,shrunken log2 fold change
1,RRIRIRPPRLPRPRPRPWAEPRP,-0.167
2,RRIRIRPPRLPRPRPRPSMAPRP,-0.531
3,RRIRRRPPRLPRPRPRPIWMPRP,0.0986
4,RRIRFRPPRLPRPRPRPANTPRP,-0.209
5,RRIRGRPPRLPRPRPRPGNAPRP,0.478
6,RRIRWRPPRLPRPRPRPFMIPRP,-0.798
7,RRIRPRPPRLPRPRPRPCHMPRP,-0.0442
8,RRIRVRPPRLPRPRPRPHRYPRP,-0.348
9,RRIRNRPPRLPRPRPRPDRIPRP,-0.0387
10,RRIRYRPPRLPRPRPRPRSPPRP,0.0591
11,RRIRPRPPRLPRPRPRPDKDPRP,-0.173
12,RRIRDRPPRLPRPRPRPHMFPRP,-0.0389
13,RRIRMRPPRLPRPRPRPAPEPRP,0.874
14,RRIRIRPPRLPRPRPRPPHEPRP,0.225
15,RRIRFRPPRLPRPRPRPPLIPRP,-0.182
16,RRIRKRPPRLPRPRPRPSKAPRP,-0.0406
17,RRIRRRPPRLPRPRPRPGWMPRP,0.0476
18,RRIRQRPPRLPRPRPRPWADPRP,0.00911
19,RRIRLRPPRLPRPRPRPFKTPRP,-0.501
20,RRIRFRPPRLPRPRPRPGKKPRP,0.0937
21,RRIRPRPPRLPRPRPRPWVVPRP,0.0434
22,RRIRHRPPRLPRPRPRPIRMPRP,-0.217
23,RRIRHRPPRLPRPRPRPMWHPRP,-0.152
24,RRIRGRPPRLPRPRPRPTYTPRP,0.249
25,RRIRGRPPRLPRPRPRPWIDPRP,-0.103

row,Sequence,shrunken log2 fold change
1,RRIRLRPPRLPRPRPRPPHHPRP,0.253
2,RRIRMRPPRLPRPRPRPCRFPRP,-0.0352
3,RRIRERPPRLPRPRPRPPCDPRP,-0.187
4,RRIRCRPPRLPRPRPRPLWMPRP,-0.378
5,RRIRDRPPRLPRPRPRPLDMPRP,-0.08
6,RRIRIRPPRLPRPRPRPNEMPRP,-0.0277
7,RRIRTRPPRLPRPRPRPKLQPRP,-0.114
8,RRIRPRPPRLPRPRPRPVNNPRP,-0.525
9,RRIRVRPPRLPRPRPRPHLQPRP,0.14
10,RRIRYRPPRLPRPRPRPAFNPRP,-0.431
11,RRIRARPPRLPRPRPRPLEHPRP,0.0565
12,RRIRERPPRLPRPRPRPNEFPRP,-0.0497
13,RRIRERPPRLPRPRPRPSLLPRP,-0.208
14,RRIRIRPPRLPRPRPRPKCLPRP,-0.0748
15,RRIRNRPPRLPRPRPRPKNYPRP,-0.752
16,RRIRSRPPRLPRPRPRPMWDPRP,0.293
17,RRIRLRPPRLPRPRPRPPAPPRP,0.789
18,RRIRGRPPRLPRPRPRPEEFPRP,0.593
19,RRIRPRPPRLPRPRPRPMDHPRP,0.0131
20,RRIRFRPPRLPRPRPRPFLLPRP,-0.696
21,RRIRHRPPRLPRPRPRPLIYPRP,-0.569
22,RRIRQRPPRLPRPRPRPGTDPRP,-0.0507
23,RRIRQRPPRLPRPRPRPWSDPRP,-0.276
24,RRIRCRPPRLPRPRPRPHRYPRP,-0.114
25,RRIRSRPPRLPRPRPRPPNIPRP,-0.251

row,Sequence,shrunken log2 fold change
1,RRIRMRPPRLPRPRPRPRWPPRP,1.06
2,RRIRGRPPRLPRPRPRPIGKPRP,0.035
3,RRIRARPPRLPRPRPRPSQEPRP,0.0769
4,RRIRSRPPRLPRPRPRPNLFPRP,-0.0477
5,RRIRFRPPRLPRPRPRPAATPRP,0.372
6,RRIRNRPPRLPRPRPRPGFPPRP,-0.00149
7,RRIRKRPPRLPRPRPRPEVRPRP,1.86
8,RRIRTRPPRLPRPRPRPHMRPRP,0.161
9,RRIRARPPRLPRPRPRPALIPRP,0.379
10,RRIRTRPPRLPRPRPRPVLPPRP,0.0511
11,RRIRYRPPRLPRPRPRPEVDPRP,-0.191
12,RRIRDRPPRLPRPRPRPSREPRP,-0.0011
13,RRIRTRPPRLPRPRPRPYKHPRP,-0.518
14,RRIRVRPPRLPRPRPRPEATPRP,0.92
15,RRIRGRPPRLPRPRPRPARMPRP,0.613
16,RRIRRRPPRLPRPRPRPHIHPRP,-0.674
17,RRIRDRPPRLPRPRPRPVVNPRP,0.24
18,RRIRGRPPRLPRPRPRPIDDPRP,0.329
19,RRIRPRPPRLPRPRPRPWPGPRP,0.367
20,RRIRCRPPRLPRPRPRPKHYPRP,-0.518
21,RRIRLRPPRLPRPRPRPEGIPRP,-0.229
22,RRIRVRPPRLPRPRPRPHQFPRP,-0.0147
23,RRIRERPPRLPRPRPRPIGLPRP,-0.293
24,RRIRIRPPRLPRPRPRPNLWPRP,-0.132
25,RRIRCRPPRLPRPRPRPKNCPRP,0.0619
